Positions count from the first letter of the chain named.
T1: MERS-CoV (NCoV/Novel coronavirus) Spike Protein (ECD, aa 1-1297, His Tag) (Sino 40069-[change]) (MERS-CoV, UniProt K9N5Q8 18-1297)
T1 sequence: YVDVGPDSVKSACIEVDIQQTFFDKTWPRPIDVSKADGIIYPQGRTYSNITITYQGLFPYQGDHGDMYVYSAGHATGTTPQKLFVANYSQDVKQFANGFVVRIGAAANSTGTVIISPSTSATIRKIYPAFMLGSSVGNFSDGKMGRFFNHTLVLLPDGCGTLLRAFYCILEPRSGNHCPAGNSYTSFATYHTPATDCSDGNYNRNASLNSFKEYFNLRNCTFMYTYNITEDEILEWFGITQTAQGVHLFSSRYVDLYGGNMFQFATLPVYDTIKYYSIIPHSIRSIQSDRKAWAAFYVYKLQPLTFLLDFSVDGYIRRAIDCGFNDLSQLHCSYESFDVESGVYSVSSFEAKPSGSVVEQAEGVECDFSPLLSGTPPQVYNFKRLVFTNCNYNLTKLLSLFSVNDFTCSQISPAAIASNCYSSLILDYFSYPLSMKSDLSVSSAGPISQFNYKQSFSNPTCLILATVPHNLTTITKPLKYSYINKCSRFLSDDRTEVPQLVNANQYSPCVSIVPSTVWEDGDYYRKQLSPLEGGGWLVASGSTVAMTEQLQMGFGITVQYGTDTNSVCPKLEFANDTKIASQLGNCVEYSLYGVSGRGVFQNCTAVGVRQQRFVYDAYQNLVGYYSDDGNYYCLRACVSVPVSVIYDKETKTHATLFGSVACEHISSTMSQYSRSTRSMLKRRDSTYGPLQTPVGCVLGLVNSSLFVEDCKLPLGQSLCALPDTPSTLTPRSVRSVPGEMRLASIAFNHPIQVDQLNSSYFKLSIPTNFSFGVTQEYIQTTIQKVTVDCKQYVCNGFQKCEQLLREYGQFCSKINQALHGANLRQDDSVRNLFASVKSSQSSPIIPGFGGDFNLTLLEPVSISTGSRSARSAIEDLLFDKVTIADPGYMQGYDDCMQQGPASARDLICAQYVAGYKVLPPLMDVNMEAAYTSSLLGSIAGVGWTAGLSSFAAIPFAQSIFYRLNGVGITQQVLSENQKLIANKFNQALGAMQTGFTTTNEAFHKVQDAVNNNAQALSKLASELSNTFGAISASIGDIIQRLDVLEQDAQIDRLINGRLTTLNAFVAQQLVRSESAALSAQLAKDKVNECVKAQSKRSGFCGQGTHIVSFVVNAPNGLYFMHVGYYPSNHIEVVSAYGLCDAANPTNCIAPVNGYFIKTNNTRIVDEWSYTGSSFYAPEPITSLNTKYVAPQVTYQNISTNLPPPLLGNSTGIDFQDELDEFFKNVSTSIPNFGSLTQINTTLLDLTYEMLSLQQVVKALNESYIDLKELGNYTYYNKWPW

T2: MERS-CoV (NCoV/Novel coronavirus) Spike Protein fragment (RBD, aa 367-606, His Tag) (Sino 40071-V08B1) (MERS-CoV, UniProt K9N5Q8 367-606)
T2 sequence: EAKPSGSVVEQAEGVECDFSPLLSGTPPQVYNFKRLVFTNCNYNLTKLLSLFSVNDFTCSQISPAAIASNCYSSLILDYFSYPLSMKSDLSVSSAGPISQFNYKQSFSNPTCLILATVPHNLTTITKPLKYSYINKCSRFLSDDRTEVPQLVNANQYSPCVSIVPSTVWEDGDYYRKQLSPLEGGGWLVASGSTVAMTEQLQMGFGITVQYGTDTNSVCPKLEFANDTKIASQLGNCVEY

T3: MERS-CoV (NCoV/Novel coronavirus) Spike Protein S2 (aa 726-1296, His Tag) (Sino 40070-[change]) (MERS-CoV, UniProt K9N5Q8 726-1296)
T3 sequence: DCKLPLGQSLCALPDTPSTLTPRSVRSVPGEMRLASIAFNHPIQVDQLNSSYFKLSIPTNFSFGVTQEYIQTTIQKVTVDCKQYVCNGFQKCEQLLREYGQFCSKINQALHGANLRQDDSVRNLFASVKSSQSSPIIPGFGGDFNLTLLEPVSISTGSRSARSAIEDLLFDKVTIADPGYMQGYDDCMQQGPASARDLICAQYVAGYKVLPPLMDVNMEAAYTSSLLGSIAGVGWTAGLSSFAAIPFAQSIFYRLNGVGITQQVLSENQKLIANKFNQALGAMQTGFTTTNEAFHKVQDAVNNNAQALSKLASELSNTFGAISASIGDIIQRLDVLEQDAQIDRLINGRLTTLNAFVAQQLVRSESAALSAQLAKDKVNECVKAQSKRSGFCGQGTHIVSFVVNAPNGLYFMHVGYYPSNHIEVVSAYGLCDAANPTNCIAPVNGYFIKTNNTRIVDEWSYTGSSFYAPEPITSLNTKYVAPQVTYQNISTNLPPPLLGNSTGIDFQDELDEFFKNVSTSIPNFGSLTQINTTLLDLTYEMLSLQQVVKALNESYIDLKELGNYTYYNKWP

B1: mAb11006 (antibody, V domains shown)
VH: EVQLVESGGGLVQPGGSLRLSCAASGFIVSRNYMSWVRQAPGKGLEWVSVIYSGGSTFYADSVKGRFTISRHNSKNTLYLQMNSLKAEDTAVYYCARELRGYFDYWGQGTLVTVSS
VL: DIQLTQSPSFLSASVGDRVTITCWASQGISSYLAWYQQKPGKAPKLLIYAASTLQSGVPSRFSGSGSGTEFTLTISSLQPEDFATYYCQLLNSYPYTFGQGTKLEIK
B2: mAb10984 (antibody, V domains shown)
VH: EVQLVESGGGLVQPGGSLRLSCAASGLTVNRNYMSWVRQAPGKGLEWVSLIYSGGSTYYADSVKGRFTISRDNSKNTLYLQMNSLRLEDTAVYYCARGELGIPYGMDVWGQGTTVTVSS
VL: QSVLTQPPSVSAAPGQKVTISCSGSSSNIGNNYVSWYQQLPGTAPKLLIYDNNKRPSGIPDRFSGSKSGTSATLGITGLQTGDEADYYCGTWDSSLSAGVFGGGTKLTVLG
B3: mAb10986 (antibody, V domains shown)
VH: EVQLVESGGGLVQPGGSLRLSCAASEFTVSSNYMSWVRQAPGKGLEWVSVIYSGGSTFYADSVKGRFTISRDNSKNTLYLQMNSLRAEDTAVYYCARALPYGDLHFDYWGQGTLVTVSS
VL: QSVLTQPPSVSGAPGQRVTISCTGSSSNIGTGYDVHWYQQLPGTAPKLLIYGNTNRPSGVPDRFSGSKSGTSASLAITGLQAEDEADYYCQSYDSSLSDSYVFGTGTKVTVLG
B4: mAb10964 (antibody, V domains shown)
VH: QVQLQESGPGLVKPSETLSLTCTVSGGSINNYYWIWIRQPPGKGLEWIGYIYHSGSTNYNPSLKSRVTISVDTSKNQFSLKVSSVTAADTAVYYCANMVRGVYEDDYWGQGTLVTVSS
VL: DIQMTQSPSSLSASVGDRVTITCRASQSISNYLNWYQQKPGKAPKLLIFAASSLRSGVPSRFSGSGSGTDFTLTISSLHPEDFATYYCQQNYNTPLTFGPGTKVDIKR
B5: mAb10920 (antibody, V domains shown)
VH: QVQLVESGGGVVQPGRSLRLSCAASGFTFSYYGMHWVRQAPGKGLEWVAVIWYDGSNKFYADSVKGRFTISRDNSKNTLYLQMNSLRAEDTAVYYCAAARPGYYYGMDVWGQGTTVTVSS
VL: DIQMTQSPSSLSASVGDRVTITCRASQGISNYLAWFQQKPGKAPNSLIYAASSLQRGVPSKFSGSGSGTDFTLTISSLQPEDFATYYCQQYNSYPRTFGQGTKVEIKR
B6: mAb10969 (antibody, V domains shown)
VH: QVQLVESGGGVVQPGRSLRLSCAASGFTFSSYAMHWVRQAPGKGLEWVAVISYDGSNKYYADSVKGRFTISRDNSKNTLYLQMNSLRAEDTAVYYCARDGRTITMVRGVIDDAFDIWGQGTMVTVSS
VL: not shown
B7: mAb10987 (antibody, V domains shown)
VH: QVQLVESGGGVVQPGRSLRLSCAASGFTFSNYAMYWVRQAPGKGLEWVAVISYDGSNKYYADSVKGRFTISRDNSKNTLYLQMNSLRTEDTAVYYCASGSDYGDYLLVYWGQGTLVTVSS
VL: QSALTQPASVSGSPGQSITISCTGTSSDVGGYNYVSWYQQHPGKAPKLMIYDVSKRPSGVSNRFSGSKSGNTASLTISGLQSEDEADYYCNSLTSISTWVFGGGTKLTVLG
B8: mAb10934 (antibody, V domains shown)
VH: not shown
VL: DIQMTQSPSSLSASVGDRVTITCQASQDIWNYINWYQQKPGKAPKLLIYDASNLKTGVPSRFSGSGSGTDFTFTISSLQPEDIATYYCQQHDDLPPTFGQGTKVEIKR
B9: mAb10954 (antibody, V domains shown)
VH: EVQLVESGGGLVQPGGSLRLSCAASGITVSSNYMSWVRQAPGKGLEWVSLIYSGGSTYYADSVKGRFTISRDNSKNTLYLQMNSLRVEDTAVYYCARDHGMAAAGYNYWGQGTLVTVSS
VL: B8 VL with W30N, N31K, I33L, K55E, S76N, I83F, Y87F, H91Y, D93N, T97A
B10: mAb10933 (antibody, V domains shown)
VH: QVQLVESGGGLVKPGGSLRLSCAASGFTFSDYYMSWIRQAPGKGLEWVSYITYSGSTIYYADSVKGRFTISRDNAKSSLYLQMNSLRAEDTAVYYCARDRGTTMVPFDYWGQGTLVTVSS
VL: B8 VL with W30T, I33L, D50A, K55E, S77G, H91Y, D93N, P96L, Q100G
B11: mAb10970 (antibody, V domains shown)
VH: EVQLVESGGGLVQPGGSLRLSCAASGFTVSSNYMSWVRQAPGKGLEWVSVIYSGGSTYYADSVKGRFTISRDNSKNTLYLQMNRLRADDTAVYYCVRDPVGRYYYGMDVWGQGTTVTVSS
VL: not shown
B12: mAb10936 (antibody, V domains shown)
VH: QVQLVESGGGVVQPGRSLRLSCAASGFTFRNYGMHWVRQAPGKGLEWVSVIWYDGSNRYYADSVKGRFTISRDTSKNTLYLQMNSLRAEDTAVYYCARDPPITGTTGGDAFDIWGQGTMVTVSS
VL: not shown

Legend:
[1] = target: SARS-CoV-2 Spike Protein (RBD)(R319-F541).hFc (mAb10622-L1) (SARS-CoV-2); test: Luminex bead binding, supernatant
[2] = target: SARS-CoV-2 Spike Protein (RBD)(R319-F541).mFc (mAb10621-L1) (SARS-CoV-2); test: Luminex bead binding, supernatant
[3] = target: Bt-SARS-CoV-2 Spike Protein (RBD)(R319-F541).mFc (mAb10621-L2) (SARS-CoV-2); test: Luminex bead binding, supernatant
[4] = target: SARS-CoV-2 spike protein (S-wt, Wuhan-Hu-1, NCBI Accession Number MN908947.3) on VSV pseudoparticles (SARS-CoV-2, UniProt P0DTC2 14-1273); test: cell-based or functional assay
[5] = target: T1, MERS-CoV (NCoV/Novel coronavirus) Spike …; test: Luminex bead binding, supernatant
[6] = target: Human SARS Coronavirus Spike S1 Subunit Protein (His Tag) (Sino 40150-V08B1) (Human SARS Coronavirus, UniProt P59594 14-667); test: Luminex bead binding, supernatant
[7] = target: T2, MERS-CoV (NCoV/Novel coronavirus) Spike …; test: Luminex bead binding, supernatant
[8] = target: T3, MERS-CoV (NCoV/Novel coronavirus) Spike …; test: Luminex bead binding, supernatant

Binder	IC50 (M), neutralization [4]	Binding signal (MFI) [5]	other results
B1	–	–	Binding signal (MFI) [1]: 3980 MFI; Binding signal (MFI) [2]: 2870 MFI; Binding signal (MFI) [3]: 1400 MFI
B2	9.73e-11 M	–	–
B3	9.91e-11 M	–	–
B4	–	15 MFI	Binding signal (MFI) [6]: 5190 MFI; Binding signal (MFI) [7]: 20 MFI
B5	2.64e-10 M	–	–
B6	–	16 MFI	Binding signal (MFI) [6]: 20 MFI; Binding signal (MFI) [7]: 26 MFI; Binding signal (MFI) [8]: 20 MFI
B7	–	15 MFI	Binding signal (MFI) [8]: 23 MFI
B8	5.44e-11 M	–	–
B9	9.22e-11 M	–	–
B10	4.28e-11 M	–	–
B11	–	14 MFI	Binding signal (MFI) [7]: 23 MFI; Binding signal (MFI) [8]: 16 MFI
B12	1.11e-10 M	–	–
